Data from the supplement of paper PMC10065799, “High-throughput profiling of sequence recognition by tyrosine kinases and SH2 domains using bacterial peptide display” (eLife, 2023).

How the values were obtained:
AncSZ = assay: phosphorylation enrichment, bacterial display (enrichment ratio); higher = better substrate or ligand; peptides without Tyr show the background
EPHB1 = EPHB1 (UniProt P54762); assay: as above
EPHB2 = EPHB2 (UniProt P29323); assay: as above
FGFR1 = FGFR1 (UniProt P11362); assay: as above
FGFR3 = FGFR3 (UniProt P22607); assay: as above
Fer (mouse) = assay: as above
Fes = Fes (UniProt P07332); assay: as above
Fyn = Fyn (UniProt P06241); assay: as above
Hck = Hck (UniProt P08631); assay: as above
Jak2 = Jak2 (UniProt O60674); assay: as above
MERTK = MERTK (UniProt Q12866); assay: as above
c-Abl (mouse) = assay: as above
c-Src = assay: as above
Grb2 SH2 = Grb2 SH2 (UniProt P62993); assay: SH2 binding enrichment of the phosphorylated peptide, bacterial display (enrichment ratio); higher = better substrate or ligand; peptides without Tyr show the background
SHP2-C SH2 = assay: as above
c-Src SH2 = assay: as above
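For SH2 binding enrichment of the phosphorylated peptide, bacterial display in this document: peptide library displayed on the E. coli surface as eCPX fusions, selected cells deep-sequenced, score is each peptide's frequency after selection divided by its frequency in the input.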
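For phosphorylation enrichment, bacterial display in this document: 11-residue human phosphosite peptides and single-mutation variants displayed on the E. coli surface, counted by deep sequencing, each peptide's frequency after selection divided by its frequency in the unselected input library; frequency after pTyr selection over input frequency; kinase dosed for 20-30% of maximal phosphorylation in three min.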

Chain of EPHB2 (P29323 whole entry, looked up): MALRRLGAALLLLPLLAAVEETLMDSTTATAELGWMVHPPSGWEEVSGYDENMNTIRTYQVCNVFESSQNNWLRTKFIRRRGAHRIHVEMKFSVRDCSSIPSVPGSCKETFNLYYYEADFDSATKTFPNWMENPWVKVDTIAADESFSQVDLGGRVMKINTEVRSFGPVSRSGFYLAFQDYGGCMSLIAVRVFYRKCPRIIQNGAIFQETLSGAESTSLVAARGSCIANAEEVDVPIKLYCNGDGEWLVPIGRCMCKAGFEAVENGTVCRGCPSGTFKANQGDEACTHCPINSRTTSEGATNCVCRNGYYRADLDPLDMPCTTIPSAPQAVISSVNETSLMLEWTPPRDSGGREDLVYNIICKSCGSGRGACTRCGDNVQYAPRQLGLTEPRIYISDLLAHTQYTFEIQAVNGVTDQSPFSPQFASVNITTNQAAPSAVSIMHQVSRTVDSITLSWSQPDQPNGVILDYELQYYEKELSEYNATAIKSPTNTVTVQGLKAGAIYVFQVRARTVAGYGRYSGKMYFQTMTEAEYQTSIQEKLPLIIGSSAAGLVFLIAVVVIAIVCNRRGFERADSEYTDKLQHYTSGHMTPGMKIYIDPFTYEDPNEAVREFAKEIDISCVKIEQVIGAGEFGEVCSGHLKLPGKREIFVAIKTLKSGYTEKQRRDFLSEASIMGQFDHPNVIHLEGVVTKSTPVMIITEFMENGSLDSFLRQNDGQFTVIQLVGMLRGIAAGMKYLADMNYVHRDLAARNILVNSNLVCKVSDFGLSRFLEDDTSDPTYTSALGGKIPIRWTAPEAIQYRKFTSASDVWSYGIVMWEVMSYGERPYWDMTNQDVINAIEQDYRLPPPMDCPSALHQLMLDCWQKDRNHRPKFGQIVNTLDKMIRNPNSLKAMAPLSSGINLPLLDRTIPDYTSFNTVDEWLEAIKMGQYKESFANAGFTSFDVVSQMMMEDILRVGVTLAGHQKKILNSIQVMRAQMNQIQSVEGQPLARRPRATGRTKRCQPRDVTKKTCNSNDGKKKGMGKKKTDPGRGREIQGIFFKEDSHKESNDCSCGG
Chain of Grb2 SH2 (P62993 whole entry, looked up): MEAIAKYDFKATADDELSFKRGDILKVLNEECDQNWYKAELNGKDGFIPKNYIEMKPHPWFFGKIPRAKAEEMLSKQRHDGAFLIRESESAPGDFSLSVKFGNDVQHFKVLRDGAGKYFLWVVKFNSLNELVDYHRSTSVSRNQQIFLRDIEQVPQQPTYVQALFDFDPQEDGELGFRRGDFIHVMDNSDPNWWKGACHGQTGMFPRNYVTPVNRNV
Chain of EPHB1 (P54762 whole entry, looked up): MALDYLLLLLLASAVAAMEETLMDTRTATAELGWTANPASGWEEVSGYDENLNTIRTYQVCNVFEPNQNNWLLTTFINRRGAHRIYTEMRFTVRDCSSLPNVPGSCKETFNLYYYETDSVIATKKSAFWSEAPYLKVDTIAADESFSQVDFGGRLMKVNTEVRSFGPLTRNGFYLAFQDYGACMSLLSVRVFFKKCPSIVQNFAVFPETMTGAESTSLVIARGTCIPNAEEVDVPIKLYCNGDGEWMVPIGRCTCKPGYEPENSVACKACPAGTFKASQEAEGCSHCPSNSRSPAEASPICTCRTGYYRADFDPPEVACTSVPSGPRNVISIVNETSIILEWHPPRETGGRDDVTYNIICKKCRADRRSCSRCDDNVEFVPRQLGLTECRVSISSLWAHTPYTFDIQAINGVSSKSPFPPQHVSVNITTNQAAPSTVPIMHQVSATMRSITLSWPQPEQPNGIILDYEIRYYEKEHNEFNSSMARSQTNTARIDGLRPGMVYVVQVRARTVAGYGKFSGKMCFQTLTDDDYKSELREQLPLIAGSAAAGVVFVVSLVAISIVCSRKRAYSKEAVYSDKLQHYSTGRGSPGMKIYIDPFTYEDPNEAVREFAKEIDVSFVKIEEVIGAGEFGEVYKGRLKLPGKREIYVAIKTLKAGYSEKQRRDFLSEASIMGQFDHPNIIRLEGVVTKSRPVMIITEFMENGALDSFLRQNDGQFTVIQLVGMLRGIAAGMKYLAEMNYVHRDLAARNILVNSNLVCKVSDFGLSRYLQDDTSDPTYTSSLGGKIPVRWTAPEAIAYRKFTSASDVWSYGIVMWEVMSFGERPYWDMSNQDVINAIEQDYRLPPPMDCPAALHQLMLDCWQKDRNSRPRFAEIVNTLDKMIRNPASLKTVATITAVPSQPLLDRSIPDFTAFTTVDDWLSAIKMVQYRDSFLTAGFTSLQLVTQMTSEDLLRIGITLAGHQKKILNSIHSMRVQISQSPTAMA
Chain of Hck (P08631 whole entry, looked up): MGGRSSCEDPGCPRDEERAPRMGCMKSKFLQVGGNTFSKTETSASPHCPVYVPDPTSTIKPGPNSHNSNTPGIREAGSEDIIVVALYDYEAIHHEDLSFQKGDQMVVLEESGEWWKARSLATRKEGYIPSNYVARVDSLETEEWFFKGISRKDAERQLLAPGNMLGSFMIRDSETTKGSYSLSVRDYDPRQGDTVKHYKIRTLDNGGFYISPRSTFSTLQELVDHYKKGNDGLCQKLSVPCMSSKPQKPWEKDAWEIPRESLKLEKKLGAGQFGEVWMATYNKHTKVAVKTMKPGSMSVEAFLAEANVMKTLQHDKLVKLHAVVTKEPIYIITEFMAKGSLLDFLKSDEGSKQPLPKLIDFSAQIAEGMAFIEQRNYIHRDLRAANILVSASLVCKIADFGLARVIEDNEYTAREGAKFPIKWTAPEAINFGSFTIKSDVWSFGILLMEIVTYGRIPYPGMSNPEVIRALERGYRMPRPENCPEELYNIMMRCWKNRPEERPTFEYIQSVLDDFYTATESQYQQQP
Chain of Fyn (P06241 whole entry, looked up): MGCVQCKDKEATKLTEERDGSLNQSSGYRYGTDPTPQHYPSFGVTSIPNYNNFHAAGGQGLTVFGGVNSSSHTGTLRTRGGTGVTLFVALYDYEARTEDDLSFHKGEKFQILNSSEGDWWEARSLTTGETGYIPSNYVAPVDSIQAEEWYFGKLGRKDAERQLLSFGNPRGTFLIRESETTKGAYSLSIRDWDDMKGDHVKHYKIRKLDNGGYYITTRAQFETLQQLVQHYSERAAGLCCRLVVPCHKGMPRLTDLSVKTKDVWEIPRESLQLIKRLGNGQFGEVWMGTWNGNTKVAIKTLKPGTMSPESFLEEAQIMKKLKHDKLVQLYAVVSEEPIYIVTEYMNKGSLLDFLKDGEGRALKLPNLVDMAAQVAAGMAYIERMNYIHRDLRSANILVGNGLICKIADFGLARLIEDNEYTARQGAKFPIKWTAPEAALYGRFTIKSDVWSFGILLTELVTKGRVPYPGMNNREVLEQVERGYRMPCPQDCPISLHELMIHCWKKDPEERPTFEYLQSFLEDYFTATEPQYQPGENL
Chain of FGFR3 (P22607 whole entry, looked up): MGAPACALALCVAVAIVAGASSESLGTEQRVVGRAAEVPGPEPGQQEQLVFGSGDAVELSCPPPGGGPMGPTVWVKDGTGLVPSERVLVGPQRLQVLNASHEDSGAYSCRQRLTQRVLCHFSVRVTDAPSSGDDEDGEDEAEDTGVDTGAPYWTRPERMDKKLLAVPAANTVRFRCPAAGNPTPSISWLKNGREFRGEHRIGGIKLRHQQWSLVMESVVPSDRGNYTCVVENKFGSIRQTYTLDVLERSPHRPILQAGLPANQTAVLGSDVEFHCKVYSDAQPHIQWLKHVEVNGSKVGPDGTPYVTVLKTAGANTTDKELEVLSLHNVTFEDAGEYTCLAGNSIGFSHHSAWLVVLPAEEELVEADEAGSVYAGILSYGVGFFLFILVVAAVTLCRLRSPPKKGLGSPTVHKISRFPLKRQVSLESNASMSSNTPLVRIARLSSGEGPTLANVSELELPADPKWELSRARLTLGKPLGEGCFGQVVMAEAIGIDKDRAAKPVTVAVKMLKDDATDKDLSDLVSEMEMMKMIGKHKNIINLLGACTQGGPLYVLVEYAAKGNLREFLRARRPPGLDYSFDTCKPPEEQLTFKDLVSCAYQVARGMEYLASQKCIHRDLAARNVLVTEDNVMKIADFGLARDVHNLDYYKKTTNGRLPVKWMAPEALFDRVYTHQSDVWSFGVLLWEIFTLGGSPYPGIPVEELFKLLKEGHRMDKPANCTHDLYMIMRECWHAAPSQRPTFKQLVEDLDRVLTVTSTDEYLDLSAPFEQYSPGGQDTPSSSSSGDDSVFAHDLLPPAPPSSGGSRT
Chain of Fes (P07332 whole entry, looked up): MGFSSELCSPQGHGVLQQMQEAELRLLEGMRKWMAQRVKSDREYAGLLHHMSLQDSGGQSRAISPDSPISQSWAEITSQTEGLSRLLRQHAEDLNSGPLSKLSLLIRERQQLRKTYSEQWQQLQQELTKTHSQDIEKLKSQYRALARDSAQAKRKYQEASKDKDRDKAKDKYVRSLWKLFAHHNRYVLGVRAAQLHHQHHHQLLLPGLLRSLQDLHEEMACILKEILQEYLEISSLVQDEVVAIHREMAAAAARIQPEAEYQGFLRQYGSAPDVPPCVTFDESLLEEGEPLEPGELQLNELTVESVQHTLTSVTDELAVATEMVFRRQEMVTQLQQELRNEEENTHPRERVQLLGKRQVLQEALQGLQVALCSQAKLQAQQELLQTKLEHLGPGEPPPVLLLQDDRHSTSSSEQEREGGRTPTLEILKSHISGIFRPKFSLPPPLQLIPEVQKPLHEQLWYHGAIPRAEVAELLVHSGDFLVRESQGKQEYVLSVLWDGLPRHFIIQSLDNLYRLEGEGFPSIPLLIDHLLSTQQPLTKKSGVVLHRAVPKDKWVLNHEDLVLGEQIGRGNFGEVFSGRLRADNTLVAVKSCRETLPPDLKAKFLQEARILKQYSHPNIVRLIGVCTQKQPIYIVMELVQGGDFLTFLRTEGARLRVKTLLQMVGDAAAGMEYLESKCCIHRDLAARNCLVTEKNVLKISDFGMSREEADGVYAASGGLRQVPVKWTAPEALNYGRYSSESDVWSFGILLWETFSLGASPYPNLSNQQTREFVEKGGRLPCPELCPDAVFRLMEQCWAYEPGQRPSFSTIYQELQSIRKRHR

Sequence | phosphorylation enrichment (AncSZ) | phosphorylation enrichment (EPHB1) | phosphorylation enrichment (EPHB2) | phosphorylation enrichment (FGFR1) | phosphorylation enrichment (FGFR3) | phosphorylation enrichment (Fer (mouse)) | phosphorylation enrichment (Fes) | phosphorylation enrichment (Fyn) | phosphorylation enrichment (Hck) | phosphorylation enrichment (Jak2) | phosphorylation enrichment (MERTK) | phosphorylation enrichment (c-Abl (mouse)) | phosphorylation enrichment (c-Src) | SH2 binding enrichment (Grb2 SH2) | SH2 binding enrichment (SHP2-C SH2) | SH2 binding enrichment (c-Src SH2)
NGPDVYVLPLT [AATK_Y93] | 1.33 | 0.626 | 0.511 | 0.685 | 0.613 | 0.414 | 0.792 | 2.32 | 0.671 | 0.8 | 1.69 | 0.645 | 1.04 | 0.804 | 0.743 | 0.552
NGRQCYSCRGN [PLAUR_Y217_K220R] | 0.375 | 0.261 | 0.319 | 0.356 | 0.31 | 0.274 | 0.461 | 0.299 | 0.35 | 0.39 | 0.346 | 0.374 | 0.294 | 1.03 | 0.769 | 1.31
NGTVSYAIVAG [CDH23_Y1672_T1671S] | 0.778 | 0.661 | 0.575 | 0.496 | 0.593 | 0.448 | 0.961 | 0.638 | 0.479 | 0.703 | 0.792 | 0.591 | 0.456 | 0.873 | 46.5 | 3.88
NHQFDYTFHWT [CSNK1A1_Y294_D297H_YF] | 1.49 | 1.55 | 1.3 | 3.83 | 2.26 | 5.97 | 1.08 | 0.507 | 0.47 | 1.09 | 0.573 | 0.803 | 0.996 | 1.09 | 1.05 | 0.523
NHYKICNLCAE [PTEN_Y68_Y68C] | 0.663 | 0.376 | 0.395 | 0.488 | 0.519 | 0.384 | 0.691 | 0.4 | 0.378 | 0.613 | 0.45 | 0.571 | 0.372 | 1.12 | 0.956 | 0.97
NHYKRYNLCAE [PTEN_Y68_I67R] | 0.74 | 0.467 | 0.516 | 0.557 | 0.554 | 0.488 | 0.82 | 0.512 | 0.542 | 0.744 | 0.446 | 0.709 | 0.508 | 0.93 | 0.769 | 0.662
NIRKKYYRAIL [CHD7_Y1217_Q1214R] | 0.569 | 0.455 | 0.311 | 0.501 | 0.341 | 0.388 | 0.547 | 0.443 | 0.395 | 0.494 | 0.507 | 0.462 | 0.442 | 0.599 | 0.426 | 0.368
NKKHHYRELPV [ERN2_Y860] | 1.04 | 0.855 | 0.773 | 0.826 | 2.45 | 1.22 | 1.97 | 0.669 | 1.01 | 2.67 | 0.795 | 2.31 | 0.996 | 1.62 | 1.48 | 1.41
NNFGNYNNQSS [HNRNPA1_Y318_D314N] | 0.564 | 0.366 | 0.393 | 0.381 | 0.708 | 0.379 | 0.632 | 0.382 | 0.354 | 0.432 | 0.326 | 0.626 | 0.32 | 0.805 | 0.607 | 0.337
NPQKPYFIRLF [WAS_Y83_S82P_YF] | 1.17 | 0.633 | 0.579 | 0.511 | 0.637 | 0.457 | 1 | 0.438 | 0.479 | 0.878 | 0.423 | 0.423 | 0.373 | 0.919 | 0.924 | 0.504
NPQKSCFIRLF [WAS_Y83_Y83C_YF] | 1.06 | 0.606 | 0.578 | 0.583 | 0.704 | 0.47 | 1.18 | 0.459 | 0.526 | 0.974 | 0.467 | 0.848 | 0.453 | 0.862 | 0.817 | 0.631
NQLNDYIFSFD [RARS1_Y516_R512Q] | 1.42 | 0.525 | 0.549 | 0.946 | 0.807 | 0.461 | 1.27 | 0.743 | 0.546 | 1.08 | 0.46 | 0.733 | 0.598 | 0.928 | 0.632 | 0.553
NRLTDYYELLL [BBS10_Y536_P539L] | 1.64 | 2.44 | 1.66 | 11.9 | 10.1 | 1.98 | 1.17 | 1.1 | 1.46 | 1.68 | 3.04 | 1.15 | 1.69 | 1.19 | 0.83 | 1.16
NTDETYCIDNK [TUBB3_Y200_E205K] | 1.23 | 0.721 | 0.577 | 0.53 | 0.783 | 0.729 | 1.34 | 0.781 | 0.592 | 1.37 | 0.407 | 0.834 | 0.976 | 0.96 | 0.955 | 0.572
NTEGGYCCICA [CRELD1_Y328_R329C] | 1.02 | 0.497 | 0.657 | 0.562 | 0.668 | 0.583 | 0.966 | 0.512 | 0.911 | 0.878 | 0.673 | 0.894 | 0.529 | 0.704 | 0.693 | 0.632
NTGDFYDLFGG [PTPN11_Y63_YF] | 1.23 | 0.587 | 0.632 | 0.582 | 0.709 | 1.82 | 1.06 | 4.89 | 3.44 | 0.985 | 2.97 | 0.773 | 4.45 | 1.14 | 0.628 | 0.615
